Measured values taken from patent US20200181677.

What was measured:
[1] = tested on: peptide #14 (PKCα pseudosubstrate), alanine-containing
[2] = tested on: peptide #11 (Optimized PKCβ Sub.), alanine-substituted, in PKCα FRET sensor
[3] = tested on: peptide #14, aspartic acid-containing (phosphomimetic)

human PKCα catalytic domain
ATP turnover of the catalytic domain for serine-containing peptide #14 with equimolar competitor peptide [1]: the alanine-substituted peptide was significantly better at inhibiting catalytic activity
basal kinase activity of the sensor (10 nm vs 30 nm ER/K linker) for the same substrate peptide [1]: the sensor with the 30 nm linker had significantly higher activity than the 10 nm linker for the same substrate peptide
kinase activity of the 10 nm peptide FRET sensor for the same substrate [2]: the higher affinity peptide sensor (#11) had a much lower activity than the lower affinity peptide sensor (#8)
ATP turnover of the catalytic domain for serine-containing peptide #14 with equimolar competitor peptide [3]: the alanine-substituted peptide was significantly better at inhibiting catalytic activity
